This data set concerns the target MBP-BmPSI (P-element somatic inhibitor) (Bombyx mori, UniProt A8R081 1-703). Briefly: EMSA; RNA dissolved in protein purification buffer, 20 mM Tris, 20 mM NaCl; pH, temperature and EMSA binding details not given. The following applies: protein: recombinant; tags: N-terminal His6-MBP-TEV; label: biotin at 5' and 3' ends; single strand. For orientation: A gel shift assay detects complexes by their altered migration in electrophoresis.

Sequence of MBP-BmPSI (P-element somatic inhibitor) (A8R081 entry or part of it): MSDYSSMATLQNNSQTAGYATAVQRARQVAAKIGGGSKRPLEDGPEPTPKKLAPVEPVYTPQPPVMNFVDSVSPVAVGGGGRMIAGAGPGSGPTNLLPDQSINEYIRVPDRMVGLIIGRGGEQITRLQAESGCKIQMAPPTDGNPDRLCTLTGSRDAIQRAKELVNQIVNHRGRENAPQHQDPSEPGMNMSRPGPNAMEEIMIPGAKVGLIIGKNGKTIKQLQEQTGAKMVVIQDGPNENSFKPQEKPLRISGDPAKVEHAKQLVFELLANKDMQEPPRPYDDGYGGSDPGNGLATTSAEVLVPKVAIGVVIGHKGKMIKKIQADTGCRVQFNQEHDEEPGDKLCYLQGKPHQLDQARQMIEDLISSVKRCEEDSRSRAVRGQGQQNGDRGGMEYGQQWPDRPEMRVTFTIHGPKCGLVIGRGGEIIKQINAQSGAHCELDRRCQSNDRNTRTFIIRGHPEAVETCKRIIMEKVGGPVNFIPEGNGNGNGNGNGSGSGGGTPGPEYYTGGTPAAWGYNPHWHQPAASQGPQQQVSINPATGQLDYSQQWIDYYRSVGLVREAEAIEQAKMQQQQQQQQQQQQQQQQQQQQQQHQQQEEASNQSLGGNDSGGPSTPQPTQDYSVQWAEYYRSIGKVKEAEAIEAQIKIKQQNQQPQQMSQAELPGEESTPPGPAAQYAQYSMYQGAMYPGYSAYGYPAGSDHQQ

As to UUAAUAAUAUAAGUGGUGUA (ssRNA) [CE1 RNA probe], the binding result is listed as “binds”.

Values taken from PMC7177926, “Spliceosomal Protein Gene BmSPX Regulates Reproductive Organ Development in Bombyx mori”.
